Source: PMC12808597, “Spatially diffuse cAMP signalling with oppositely biased GLP-1 receptor agonists in β-cells despite differences in receptor localisation” (Molecular Metabolism, 2025)

How the values were obtained:
[1] = molecular target: mouse glucagon-like peptide-1 receptor, untagged (mouse) (UniProt O35659); experiment: imaging of fluorescent ligand bound to cells; washout: TMR-agonist detected at 60 min in AD293 cells transiently expressing untagged GLP-1R, with or without 20 uM exendin(9-39) applied 10 min after agonist
Sequence of mouse glucagon-like peptide-1 receptor, untagged (mouse) (O35659 22-463): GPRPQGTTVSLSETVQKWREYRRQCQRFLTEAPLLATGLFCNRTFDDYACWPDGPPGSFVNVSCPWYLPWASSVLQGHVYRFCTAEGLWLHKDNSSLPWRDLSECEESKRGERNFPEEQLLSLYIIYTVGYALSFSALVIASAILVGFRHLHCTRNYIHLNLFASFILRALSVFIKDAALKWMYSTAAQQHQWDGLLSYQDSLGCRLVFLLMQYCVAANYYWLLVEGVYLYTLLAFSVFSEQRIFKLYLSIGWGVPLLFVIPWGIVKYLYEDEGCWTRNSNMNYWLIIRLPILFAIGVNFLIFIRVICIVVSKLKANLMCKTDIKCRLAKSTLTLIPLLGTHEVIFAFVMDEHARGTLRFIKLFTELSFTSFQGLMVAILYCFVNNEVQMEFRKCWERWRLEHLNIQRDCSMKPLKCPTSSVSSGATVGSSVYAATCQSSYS

[2] = molecular target: GLP-1R endogenous in wild-type mouse pancreatic islets (mouse (endogenous in C57Bl/6J islets)) (UniProt O35659); experiment: imaging of fluorescent ligand in intact islets; wild-type mouse islets, 1 nM TMR-agonist, continuous 60 min or 10 min then exendin(9-39) washout
Sequence of GLP-1R endogenous in wild-type mouse pancreatic islets (mouse (endogenous in C57Bl/6J islets)) (O35659 22-463): as above

[3] = molecular target: human glucagon-like peptide-1 receptor, untagged (human) (UniProt P43220); experiment: imaging of fluorescent ligand bound to cells; Cy5- or TMR-agonist over a concentration range, 30 min stimulation; AD293 cells expressing untagged hGLP-1R or mGLP-1R, or wild-type INS-1 832/3 cells (non-specific binding from INS-1 832/3 Glp1r-/- cells subtracted); 'functional affinities'
Sequence of human glucagon-like peptide-1 receptor, untagged (human) (P43220 24-463): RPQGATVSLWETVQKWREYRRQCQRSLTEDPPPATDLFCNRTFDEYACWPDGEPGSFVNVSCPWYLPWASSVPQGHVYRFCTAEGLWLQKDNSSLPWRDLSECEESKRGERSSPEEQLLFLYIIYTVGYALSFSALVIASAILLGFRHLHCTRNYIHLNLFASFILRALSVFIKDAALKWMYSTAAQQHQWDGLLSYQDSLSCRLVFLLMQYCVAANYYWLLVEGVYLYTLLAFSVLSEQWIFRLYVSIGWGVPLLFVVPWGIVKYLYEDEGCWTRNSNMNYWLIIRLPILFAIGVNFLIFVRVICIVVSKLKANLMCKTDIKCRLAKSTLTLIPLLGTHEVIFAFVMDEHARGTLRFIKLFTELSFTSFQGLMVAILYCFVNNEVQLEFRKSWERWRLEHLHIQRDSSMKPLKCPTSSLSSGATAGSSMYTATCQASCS

[4] = molecular target: mouse glucagon-like peptide-1 receptor, untagged (mouse) (UniProt O35659); experiment: as above

Substance	percent reduction of total ExD3-TMR binding by washout with 20 uM exendin(9-39) [1]	total ligand bound after washout relative to continuously applied ExF1 [2]	fold lower affinity than the Cy5 equivalent [3]	fold lower affinity than the Cy5 equivalent [4]
exendin(9–39) (peptide)	50%			
exendin-asp3 tetramethylrhodamine conjugate (peptide)		2 fold	5 fold	3 fold
exendin-phe1 tetramethylrhodamine conjugate (peptide)			5 fold	3 fold
